Target: T1, GST-USP11 (UniProt P51784 1-963)
T1 construct: USP11; pGEX4T1-GST-USP11; made by subcloning; the bought USP11 plasmid is Addgene 22566; also called recombinant USP11; source: E. coli Rosetta (DE3), purified (Glutathione Sepharose 4B)
Test: pull-down; MBP pull-down: 10 μg MBP-SPRYD3 (or equimolar MBP) mixed with 10 μg GST-tagged protein in NP-40 buffer, 4 °C 1 h; Amylose resin 2 h at 4 °C; five washes; Western blot
Conditions: both partners purified

T1 sequence (P51784 whole entry): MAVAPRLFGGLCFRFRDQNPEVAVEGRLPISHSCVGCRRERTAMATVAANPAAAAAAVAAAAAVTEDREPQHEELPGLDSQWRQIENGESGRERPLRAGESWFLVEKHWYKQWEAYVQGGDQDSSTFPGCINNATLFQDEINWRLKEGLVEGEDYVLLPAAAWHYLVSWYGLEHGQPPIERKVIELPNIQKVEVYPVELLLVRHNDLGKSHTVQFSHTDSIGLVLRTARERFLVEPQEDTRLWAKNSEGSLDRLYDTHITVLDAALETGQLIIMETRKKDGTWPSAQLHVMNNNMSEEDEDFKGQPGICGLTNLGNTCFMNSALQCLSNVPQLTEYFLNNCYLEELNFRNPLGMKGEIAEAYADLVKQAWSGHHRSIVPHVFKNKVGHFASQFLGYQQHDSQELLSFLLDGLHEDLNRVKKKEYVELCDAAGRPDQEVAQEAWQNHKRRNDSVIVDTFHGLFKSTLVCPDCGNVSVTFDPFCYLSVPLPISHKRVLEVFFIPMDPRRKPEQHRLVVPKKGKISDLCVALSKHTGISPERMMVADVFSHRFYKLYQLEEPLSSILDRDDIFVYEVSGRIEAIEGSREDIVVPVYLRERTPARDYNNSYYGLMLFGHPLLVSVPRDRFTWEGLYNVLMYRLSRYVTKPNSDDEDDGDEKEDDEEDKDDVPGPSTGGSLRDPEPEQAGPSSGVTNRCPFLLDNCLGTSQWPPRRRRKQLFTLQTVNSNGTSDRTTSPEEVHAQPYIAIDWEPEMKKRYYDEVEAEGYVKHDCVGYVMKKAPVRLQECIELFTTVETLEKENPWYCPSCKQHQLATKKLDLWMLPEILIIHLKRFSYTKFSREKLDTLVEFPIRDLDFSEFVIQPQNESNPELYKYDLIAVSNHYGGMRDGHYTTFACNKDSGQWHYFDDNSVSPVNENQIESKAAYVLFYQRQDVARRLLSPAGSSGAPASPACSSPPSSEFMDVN

binding result: binds
B1: MBP-SPRYD3 (natural protein, UniProt Q8NCJ5 1-442, looked up)
chain: MRRTRRPRFVLMNKMDDLNLHYRFLNWRRRIREIREVRAFRYQERFKHILVDGDTLSYHGNSGEVGCYVASRPLTKDSNYFEVSIVDSGVRGTIAVGLVPQYYSLDHQPGWLPDSVAYHADDGKLYNGRAKGRQFGSKCNSGDRIGCGIEPVSFDVQTAQIFFTKNGKRVGSTIMPMSPDGLFPAVGMHSLGEEVRLHLNAELGREDDSVMMVDSYEDEWGRLHDVRVCGTLLEYLGKGKSIVDVGLAQARHPLSTRSHYFEVEIVDPGEKCYIALGLARKDYPKNRHPGWSRGSVAYHADDGKIFHGSGVGDPFGPRCYKGDIMGCGIMFPRDYILDSEGDSDDSCDTVILSPTARAVRNVRNVMYLHQEGEEEEEEEEEEEDGEEIEPEHEGRKVVVFFTRNGKIIGKKDAVVPSGGFFPTIGMLSCGEKVKVDLHPLSG
notes: SPRYD3; pMal-c2-MBP-SPRYD3; also called recombinant SPRYD3; source: E. coli Rosetta (DE3), purified (Amylose resin)

From publication PMC12664034, “The E3 ubiquitin ligase SPRYD3-MYCBP2(PAM) regulates mitotic cell fate and ubiquitination of USP11 to control spindle assembly” (The Journal of Biological Chemistry, 2025)
